From patent US10098938B2, “Peptides and combination of peptides for use in immunotherapy against various cancers” (immatics biotechnologies GmbH, priority 2015, dated 2018)

Legend:
[1] = target: HLA-A*02 (Homo sapiens, UniProt P04439, D140Y/D185E/D98H/E176V/E277Q/G131W/G231S/I119V/I121R/I166T/I218V/L300P/N151K/N90K/P208A/P217A/Q86G/Q94H/R138H/R169H); assay: MHC binding assay, UV-ligand exchange with β2m ELISA, HLA-A*02; details: binding to HLA-A*02 ranged by peptide exchange yield
Description: (§1) Candidate peptides for T cell based therapies according to the present invention were further tested for their MHC binding capacity (affinity). The individual peptide-MHC complexes were produced by UV-ligand exchange, where a UV-sensitive peptide is cleaved upon UV-irradiation, and exchanged with the peptide of interest as analyzed. Only peptide candidates that can effectively bind and stabilize the peptide-receptive MHC molecules prevent dissociation of the MHC complexes. To determine the yield of the exchange reaction, an ELISA was performed based on the detection of the light chain (β2m) of stabilized MHC complexes. The assay was performed as generally described in Rodenko et al. (Rodenko et al., 2006).
(§2) 96 well MAXISorp plates (NUNC) were coated over night with 2 ug/ml streptavidin in PBS at room temperature, washed 4× and blocked for 1 h at 37° C. in 2% BSA containing blocking buffer. Refolded HLA-A*02:01/MLA-001 monomers served as standards, covering the range of 15-500 ng/ml. Peptide-MHC monomers of the UV-exchange reaction were diluted 100 fold in blocking buffer. Samples were incubated for 1 h at 37° C., washed four times, incubated with 2 ug/ml HRP conjugated anti-β2m for 1 h at 37° C., washed again and detected with TMB solution that is stopped with […]. Absorption was measured at 450 nm. Candidate peptides that show a high exchange yield (preferably higher than 50%, most preferred higher than 75%) are generally preferred for a generation and production of antibodies or fragments thereof, and/or T cell receptors or fragments thereof, as they show sufficient avidity to the MHC molecules and prevent dissociation of the MHC complexes.

[2] = system: CD8+ T cells; assay: In vitro immunogenicity: T-cell priming with aAPCs loaded with peptide/MHC and anti-CD28, pMHC multimer readout; assay type: cell-based, human; details: in vitro immunogenicity of HLA class I peptides; for Wells positive [%]: pMHC multimer readout after T-cell priming; for Wells: CD8+ T cells of healthy donors, three stimulation cycles, multimer staining
Description: In order to obtain information regarding the immunogenicity of the TUMAPs of the present invention, the inventors performed investigations using an in vitro T-cell priming assay based on repeated stimulations of CD8+ T cells with artificial antigen presenting cells (aAPCs) loaded with peptide/MHC complexes and anti-CD28 antibody.
In order to perform in vitro stimulations by artificial antigen presenting cells loaded with peptide-MHC complex (pMHC) and anti-CD28 antibody, the inventors first isolated CD8+ T cells from fresh HLA-A*02 leukapheresis products via positive selection using CD8 microbeads (Miltenyi Biotec, Bergisch-Gladbach, Germany) of healthy donors obtained from the University clinics Mannheim, Germany, after informed consent.
PBMCs and isolated CD8+ lymphocytes were incubated in T-cell medium (TCM) until use consisting of RPMI-Glutamax (Invitrogen, Karlsruhe, Germany) supplemented with 10% heat inactivated human AB serum (PAN-Biotech, Aidenbach, Germany), 100 U/ml Penicillin/100 μg/ml Streptomycin (Cambrex, Cologne, Germany), 1 mM sodium pyruvate (CC Pro, Oberdorla, Germany), 20 μg/ml Gentamycin (Cambrex). 2.5 ng/ml IL7 (PromoCell, Heidelberg, Germany) and 10 U/ml IL-2 (Novartis Pharma, Nürnberg, Germany) were also added to the TCM at this step.
Generation of pMHC/anti-CD28 coated beads, T-cell stimulations and readout was performed in a highly defined in vitro system using four different pMHC molecules per stimulation condition and 8 different pMHC molecules per readout condition.
The purified co-stimulatory mouse IgG2a anti human CD28 Ab 9.3 (Jung et al., 1987) was chemically biotinylated using Sulfo-N-hydroxysuccinimidobiotin as recommended by the manufacturer (Perbio, Bonn, Germany). Beads used were 5.6 μm diameter streptavidin coated polystyrene particles (Bangs Laboratories, Illinois, USA).
pMHC used for positive and negative control stimulations were A*0201/MLA-001 (peptide […] (SEQ ID NO. 303) from modified Melan-A/MART-1) and A*0201/DDX5-001 ([…] from DDX5, SEQ ID NO. 304), respectively.
800.000 beads/200 μl were coated in 96-well plates in the presence of 4×12.5 ng different biotin-pMHC, washed and 600 ng biotin anti-CD28 were added subsequently in a volume of 200 μl. Stimulations were initiated in 96-well plates by co-incubating […] CD8+ T cells with 2×10^5 washed coated beads in 200 μl TCM supplemented with 5 ng/ml IL-12 (PromoCell) for 3 days at 37° C. Half of the medium was then exchanged by fresh TCM supplemented with 80 U/ml IL-2 and incubating was continued for 4 days at 37° C. This stimulation cycle was performed for a total of three times. For the pMHC multimer readout using 8 different pMHC molecules per condition, a two-dimensional combinatorial coding approach was used as previously described (Andersen et al., 2012) with minor modifications encompassing coupling to 5 different fluorochromes. Finally, multimeric analyses were performed by staining the cells with Live/dead near IR dye (Invitrogen, Karlsruhe, Germany), CD8-FITC antibody clone SK1 (BD, Heidelberg, Germany) and fluorescent pMHC multimers. For analysis, a BD LSRII SORP cytometer equipped with appropriate lasers and filters was used. Peptide specific cells were calculated as percentage of total CD8+ cells. Evaluation of multimeric analysis was done using the FlowJo software (Tree Star, Oregon, USA). In vitro priming of specific multimer+ CD8+ lymphocytes was detected by comparing to negative control stimulations.

[3] = system: HLA-A*24; assay: MHC binding assay, UV-ligand exchange with β2m ELISA, HLA-A*24; parameters: species or system human; details: binding to HLA-A*24 ranged by peptide exchange yield
Description: as §1, §2

Substance	Peptide exchange [1]	further results
1 (LLYPEPWSV; listed as Homo sapiens) [compound 1]	++++ (> = 75% = ++++)	–
3 (KLEENGDLYL; listed as Homo sapiens) [compound 3]	++++ (> = 75% = ++++)	–
4 (KLMPGTYTL; listed as Homo sapiens) [compound 4]	++++ (> = 75% = ++++)	Wells positive [%] [2]: + (<20% = +)
14 (ILAKDLFEI; listed as Homo sapiens) [compound 14]	++++ (> = 75% = ++++)	–
16 (YTLDIPVLFGV; listed as Homo sapiens) [compound 16]	++++ (> = 75% = ++++)	–
42 (LLDSVSRL; listed as Homo sapiens) [compound 42]	+ (<20% = +)	–
92 (GLLFSLRSV; listed as Homo sapiens) [compound 92]	++++ (> = 75% = ++++)	–
95 (GLLGSLFFL; listed as Homo sapiens) [compound 95]	++++ (> = 75% = ++++)	–
120 (VTPVTVSAV; listed as Homo sapiens) [compound 120]	+ (<20% = +)	–
125 (SLADYEHFV; listed as Homo sapiens) [compound 125]	++++ (> = 75% = ++++)	–
126 (QMFQYFITV; listed as Homo sapiens) [compound 126]	++++ (> = 75% = ++++)	–
133 (ALLPRLHQL; listed as Homo sapiens) [compound 133]	++++ (> = 75% = ++++)	–
158 (HYSQELSLLYL; listed as Homo sapiens) [compound 158]	–	Peptide exchange [3]: ++++ (> = 75% = ++++); Wells positive [%] [2]: + (<20% = +)
159 (LYNKGFIYL; listed as Homo sapiens) [compound 159]	–	Peptide exchange [3]: ++++ (> = 75% = ++++); Wells positive [%] [2]: ++++ (> = 70% = ++++)
163 (DYLKGLASF; listed as Homo sapiens) [compound 163]	–	Peptide exchange [3]: ++++ (> = 75% = ++++); Wells positive [%] [2]: + (<20% = +)
165 (DYTTWTALL; listed as Homo sapiens) [compound 165]	–	Peptide exchange [3]: ++++ (> = 75% = ++++); Wells positive [%] [2]: + (<20% = +)
167 (NYINRILKL; listed as Homo sapiens) [compound 167]	–	Peptide exchange [3]: ++++ (> = 75% = ++++); Wells positive [%] [2]: + (<20% = +)
204 (TYELRYFQI; listed as Homo sapiens) [compound 204]	–	Peptide exchange [3]: ++++ (> = 75% = ++++); Wells positive [%] [2]: + (<20% = +)
248 (YLDRFLAGV; listed as Homo sapiens) [compound 248]	++++ (> = 75% = ++++)	–
258 (LLSERFINV; listed as Homo sapiens) [compound 258]	++++ (> = 75% = ++++)	–
292 (GMMTAILGV; listed as Homo sapiens) [compound 292]	–	Wells [2]: + (<20% = +)
293 (FLVDGSWSI; listed as Homo sapiens) [compound 293]	–	Wells [2]: + (<20% = +)
296 (TYVDSSHTI; listed as Homo sapiens) [compound 296]	–	Wells [2]: + (<20% = +)
298 (RYLEGTSCI; listed as Homo sapiens) [compound 298]	–	Wells [2]: + (<20% = +)
300 (AYVLRLETL; listed as Homo sapiens) [compound 300]	–	Wells [2]: + (<20% = +)
301 (AYKPGALTF; listed as Homo sapiens) [compound 301]	–	Wells [2]: + (<20% = +)

More lines, main results first:

Peptide exchange [1]	Substance	further results
++++ (> = 75% = ++++)	12 (GLLPLLHRA; listed as Homo sapiens) [compound 12]	Wells positive [%] [2]: ++++ (> = 70% = ++++)
++++ (> = 75% = ++++)	34 (FLLATEVVTV; listed as Homo sapiens) [compound 34]	–
++++ (> = 75% = ++++)	51 (LLFSRLCGA; listed as Homo sapiens) [compound 51]	–
+ (<20% = +)	82 (FIFDEAEKL; listed as Homo sapiens) [compound 82]	–
++++ (> = 75% = ++++)	84 (ALCPRIHEV; listed as Homo sapiens) [compound 84]	–
+ (<20% = +)	100 (ALLGMIIVGV; listed as Homo sapiens) [compound 100]	–
++++ (> = 75% = ++++)	112 (SLGKFTFDV; listed as Homo sapiens) [compound 112]	–
++++ (> = 75% = ++++)	129 (RLQDILWFL; listed as Homo sapiens) [compound 129]	–
++++ (> = 75% = ++++)	147 (YLMDDTVEI; listed as Homo sapiens) [compound 147]	–
++++ (> = 75% = ++++)	153 (FISERVEVV; listed as Homo sapiens) [compound 153]	–
++++ (> = 75% = ++++)	229 (AILAHLNTV; listed as Homo sapiens) [compound 229]	–
++++ (> = 75% = ++++)	245 (SLLDLPLSL; listed as Homo sapiens) [compound 245]	–
++++ (> = 75% = ++++)	249 (GLCERLVSL; listed as Homo sapiens) [compound 249]	Wells positive [%] [2]: + (<20% = +)
++++ (> = 75% = ++++)	257 (GLYTDPCGV; listed as Homo sapiens) [compound 257]	–
